Common to all, as to format: biochemical
Series [1] can be described thus: HTP-analysis of supernatants pretreated with acid (MUGal hydrolysis). The conditions noted are these: activity of the variant/activity of Rd7BB (SEQ ID NO: 44); challenge at pH 3.5. In short, it runs like this: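 MUGal hydrolysis was tracked by fluorescence (Ex 355 nm, Em 448 nm) after a 30-180 min reaction at 37° C. in pH 4.8 McIlvaine/citrate buffer, stopped with 1 M sodium carbonate. Beforehand, yeast (INVSc1) culture supernatants carrying GLA variants were held 1-3 h at 37° C. in acidic McIlvaine buffer, pH 3.3-4.3.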

A short description of series [2]: HTP-analysis of supernatants pretreated with base (MUGal hydrolysis). To be noted: activity of the variant/activity of Rd7BB (SEQ ID NO: 44); challenge at pH 7.5. The essentials: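 Supernatants from INVSc1 yeast expressing GLA variants (SD-Ura, 66-84 h, 30° C) were mixed with McIlvaine buffer pH 7.0-8.2 or 200 mM sodium bicarbonate pH 9.1-9.7 and held 1-18 h at 37° C. Residual activity was then measured on MUGal at pH 4.8/4.3, 37° C, 30-180 min, by fluorescence (Ex 355/Em 448 nm).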

Series [3] in a line: HTP-analysis of yeast culture supernatants, no challenge (MUGal hydrolysis). To be noted: activity of the variant/activity of Rd7BB (SEQ ID NO: 44). The essentials: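 GLA variants were expressed in INVSc1 yeast grown in SD-Ura broth with glucose at 30° C., and culture supernatants were collected after 66-84 h. Supernatant was mixed with McIlvaine buffer pH 4.8 and MUGal (2 mM stock) in 50 mM citrate, 200 mM KCl, pH 4.6, incubated at 37° C. for 30-180 minutes, then quenched with sodium carbonate.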

Positions count from the first letter of the chain named.

B1: 676 (protein)
chain: LDNGLARTPTMGWLHWERFMCNLDCQEEPDSCISEKLFEEMAERMVTEGWKDAGYEYLCIDDCWMAPQRDSEGRLQADPQRFPHGIRQLANHVHSKGLKLGIYADVGNKTCAGFPGSFGYYDIDAQTFADWGVDLLKFDGCYCDSLENLADGYKHMSLALNRTGRPIVYSCEWPLYMWPFQKPNYTEIRQYCNHWRNFADIDDSWASIKSILDWTSRNQERIVDVAGPGGWNDPDMLVIGNFGLSWDQQVTQMALWAIMAAPLFMSNDLRAISPQAKALLQDKDVIAINQDPLGKQGYQLRKGDNFEVWERPLSGDAWAVAIINRQEIGGPRSYTIPVASLGKGVACNPACFITQLLPVKRQLGFYNATSRLKSHINPTGTVLLQLENTMQTSLKDLL
modifications: Synthetic Polypeptide sequence of Variant No. 676 of mature Human GLA
Consider B1, for which, in series [1], the “Relative Activity of GLA Variants After Challenge at pH 3.5” value (shortened to “Relative Activity … at pH 3.5”) is listed as “+ (>0.5 to 1.5 relative activity over Rd7BB (SEQ ID NO: 44))”. The “Relative Activity of GLA Variants After Challenge at pH 7.5” value (“Relative Activity … at pH 7.5” below) in series [2] is recorded as “+ (>0.5 to 1.5 relative activity over Rd7BB (SEQ ID NO: 44))”. Further, the “Relative Activity of GLA Variants After No Challenge (NC)” value in series [3] was “+ (>0.5 to 1.5 relative activity over Rd7BB (SEQ ID NO: 44))”.

B2: 641 (protein)
chain: B1 chain with T10P, S266P, A368W
modifications: Synthetic Polypeptide sequence of Variant No. 641 of mature Human GLA
Take B2: in series [1], the “Relative Activity … at pH 3.5” value is “− (<0.5 relative activity to Rd7BB (SEQ ID NO: 44))”. In addition, the “Relative Activity … at pH 7.5” value in series [2] is “− (<0.5 relative activity to Rd7BB (SEQ ID NO: 44))”. For the same molecule, in series [3], the “Relative Activity of GLA Variants After No Challenge (NC)” value is “− (<0.5 relative activity to Rd7BB (SEQ ID NO: 44))”.

B3: 683 (protein)
chain: B1 chain with E43D, W246P, M253W, S273D
modifications: Synthetic Polypeptide sequence of Variant No. 683 of mature Human GLA
Regarding B3, the “Relative Activity … at pH 3.5” value in series [1] is listed as “+ (>0.5 to 1.5 relative activity over Rd7BB (SEQ ID NO: 44))”. In addition, in series [2], the “Relative Activity … at pH 7.5” value is recorded as “− (<0.5 relative activity to Rd7BB (SEQ ID NO: 44))”. Moreover, in series [3], the “Relative Activity of GLA Variants After No Challenge (NC)” value was “+ (>0.5 to 1.5 relative activity over Rd7BB (SEQ ID NO: 44))”.

B4: 681 (protein)
chain: B1 chain with R7P, E39M, A368W
modifications: Synthetic Polypeptide sequence of Variant No. 681 of mature Human GLA
In the case of B4, the “Relative Activity … at pH 3.5” value in series [1] is reported as “− (<0.5 relative activity to Rd7BB (SEQ ID NO: 44))”. The “Relative Activity … at pH 7.5” value in series [2] was “− (<0.5 relative activity to Rd7BB (SEQ ID NO: 44))”. For the same molecule, the “Relative Activity of GLA Variants After No Challenge (NC)” value in series [3] was “− (<0.5 relative activity to Rd7BB (SEQ ID NO: 44))”.

B5: 680 (protein)
chain: B1 chain with T10P, A368W
modifications: Synthetic Polypeptide sequence of Variant No. 680 of mature Human GLA
On to B5, for which the “Relative Activity … at pH 3.5” value in series [1] is on record as “+ (>0.5 to 1.5 relative activity over Rd7BB (SEQ ID NO: 44))”. Moreover, in series [2], the “Relative Activity … at pH 7.5” value is on record as “+ (>0.5 to 1.5 relative activity over Rd7BB (SEQ ID NO: 44))”. Also, the “Relative Activity of GLA Variants After No Challenge (NC)” value in series [3] is “+ (>0.5 to 1.5 relative activity over Rd7BB (SEQ ID NO: 44))”.

B6: 679 (protein)
chain: B1 chain with T10P, N305L, A368W
modifications: Synthetic Polypeptide sequence of Variant No. 679 of mature Human GLA
B6: the “Relative Activity … at pH 3.5” value in series [1] is reported as “+ (>0.5 to 1.5 relative activity over Rd7BB (SEQ ID NO: 44))”. In addition, the “Relative Activity … at pH 7.5” value in series [2] is “+ (>0.5 to 1.5 relative activity over Rd7BB (SEQ ID NO: 44))”. Moreover, in series [3], the “Relative Activity of GLA Variants After No Challenge (NC)” value is reported as “+ (>0.5 to 1.5 relative activity over Rd7BB (SEQ ID NO: 44))”.

B7: 685 (protein)
chain: B1 chain with E39M, E43D, M253W, A257G, N305L
modifications: Synthetic Polypeptide sequence of Variant No. 685 of mature Human GLA
B7: in series [1], the “Relative Activity … at pH 3.5” value is recorded as “− (<0.5 relative activity to Rd7BB (SEQ ID NO: 44))”. In series [2], the “Relative Activity … at pH 7.5” value was “− (<0.5 relative activity to Rd7BB (SEQ ID NO: 44))”. The “Relative Activity of GLA Variants After No Challenge (NC)” value in series [3] is “+ (>0.5 to 1.5 relative activity over Rd7BB (SEQ ID NO: 44))”.

B8: 684 (protein)
chain: B1 chain with E39M
modifications: Synthetic Polypeptide sequence of Variant No. 684 of mature Human GLA
Turning to B8, the “Relative Activity … at pH 3.5” value in series [1] is recorded as “+ (>0.5 to 1.5 relative activity over Rd7BB (SEQ ID NO: 44))”. The “Relative Activity … at pH 7.5” value in series [2] is “+ (>0.5 to 1.5 relative activity over Rd7BB (SEQ ID NO: 44))”. For the same molecule, in series [3], the “Relative Activity of GLA Variants After No Challenge (NC)” value is “+ (>0.5 to 1.5 relative activity over Rd7BB (SEQ ID NO: 44))”.

B9: 677 (protein)
chain: B1 chain with E39M, M253W, S273D, P274S, K277R, A368W
modifications: Synthetic Polypeptide sequence of Variant No. 677 of mature Human GLA
With B9, the “Relative Activity … at pH 3.5” value in series [1] is on record as “+ (>0.5 to 1.5 relative activity over Rd7BB (SEQ ID NO: 44))”. The “Relative Activity … at pH 7.5” value in series [2] is listed as “− (<0.5 relative activity to Rd7BB (SEQ ID NO: 44))”. Also, in series [3], the “Relative Activity of GLA Variants After No Challenge (NC)” value is reported as “+ (>0.5 to 1.5 relative activity over Rd7BB (SEQ ID NO: 44))”.

B10: 682 (protein)
chain: B1 chain with E39M, D316Y, A368W
modifications: Synthetic Polypeptide sequence of Variant No. 682 of mature Human GLA
As for B10, the “Relative Activity … at pH 3.5” value in series [1] is “+ (>0.5 to 1.5 relative activity over Rd7BB (SEQ ID NO: 44))”. For the same molecule, the “Relative Activity … at pH 7.5” value in series [2] is reported as “+ (>0.5 to 1.5 relative activity over Rd7BB (SEQ ID NO: 44))”. Besides, the “Relative Activity of GLA Variants After No Challenge (NC)” value in series [3] was “+ (>0.5 to 1.5 relative activity over Rd7BB (SEQ ID NO: 44))”.

B11: 640 (protein)
chain: B1 chain with T10P, E43D, A368W
modifications: Synthetic Polypeptide sequence of Variant No. 640 of mature Human GLA
Regarding B11, the “Relative Activity … at pH 3.5” value in series [1] is given as “+ (>0.5 to 1.5 relative activity over Rd7BB (SEQ ID NO: 44))”. Besides, in series [2], the “Relative Activity … at pH 7.5” value is “+ (>0.5 to 1.5 relative activity over Rd7BB (SEQ ID NO: 44))”. Besides, the “Relative Activity of GLA Variants After No Challenge (NC)” value in series [3] is on record as “+ (>0.5 to 1.5 relative activity over Rd7BB (SEQ ID NO: 44))”.

B12: 678 (protein)
chain: B1 chain with E39M, M253W, A257G, K277R, Q281L, A319D, A368W
modifications: Synthetic Polypeptide sequence of Variant No. 678 of mature Human GLA
For the molecule B12, in series [1], the “Relative Activity … at pH 3.5” value is “− (<0.5 relative activity to Rd7BB (SEQ ID NO: 44))”. The “Relative Activity … at pH 7.5” value in series [2] is given as “− (<0.5 relative activity to Rd7BB (SEQ ID NO: 44))”. In addition, the “Relative Activity of GLA Variants After No Challenge (NC)” value in series [3] was “− (<0.5 relative activity to Rd7BB (SEQ ID NO: 44))”.

These data come from patent US11278600B2, “Human alpha-galactosidase variants” (Codexis, Inc., priority 2014, dated 2022).
